Measured values taken from the RNAGym collection of RNA variant scans (doi:10.1021/acssynbio.7b00057).

B1: Pistol ribozyme (parent)
chain: GGGUCGUUGUUCCAUAAUCGCGUGGAUAUGGCACGCAAGUUUCUACCGGGCACCGUAAAUGUCCGACUGGAGCCGUUCGGGCGGCUAUAAACAGACCUCAGGCCCGAAGCGUGGCGGCACCUGCCGCCGGUGGUAAAAAAGAUCGGAAGAGCACACGUCU

Variants of: B1
Test: aptazyme ON/OFF ratio, guanine; higher = stronger switching; co-transcriptional cleavage with and without guanine

Variant	aptazyme ON/OFF ratio
GGGUCGAUUGCAUAUAAUCGCGUGGAUAUGGCACGCAAGUUUCUACCGGGCACCGUAAAUGUCCGACUGGAGCCGUUCGGGCGGCUAUAAACAGACCUCAGGCCCGAAGCGUGGCGGCACCUGCCGCCGGUGGUAAAAAAGAUCGGAAGAGCACACGUCU [U7A G9U U10G U11C C12A C13U]	1.24
GGGUCGAUUGCAGAUAAUCGCGUGGAUAUGGCACGCAAGUUUCUACCGGGCACCGUAAAUGUCCGACUGGAGCCGUUCGGGCGGCUAUAAACAGACCUCAGGCCCGAAGCGUGGCGGCACCUGCCGCCGGUGGUAAAAAAGAUCGGAAGAGCACACGUCU [U7A G9U U10G U11C C12A C13G]	1.12
GGGUCGAUUGCAAAUAAUCGCGUGGAUAUGGCACGCAAGUUUCUACCGGGCACCGUAAAUGUCCGACUGGAGCCGUUCGGGCGGCUAUAAACAGACCUCAGGCCCGAAGCGUGGCGGCACCUGCCGCCGGUGGUAAAAAAGAUCGGAAGAGCACACGUCU [U7A G9U U10G U11C C12A C13A]	1.14
GGGUCGAUUUAACAUAAUCGCGUGGAUAUGGCACGCAAGUUUCUACCGGGCACCGUAAAUGUCCGACUGGAGCCGUUCGGGCGGCUAUAAACAGACCUCAGGCCCGAAGCGUGGCGGCACCUGCCGCCGGUGGUAAAAAAGAUCGGAAGAGCACACGUCU [U7A G9U U11A C12A]	1.28
GGGUCGAUUUAAAAUAAUCGCGUGGAUAUGGCACGCAAGUUUCUACCGGGCACCGUAAAUGUCCGACUGGAGCCGUUCGGGCGGCUAUAAACAGACCUCAGGCCCGAAGCGUGGCGGCACCUGCCGCCGGUGGUAAAAAAGAUCGGAAGAGCACACGUCU [U7A G9U U11A C12A C13A]	1.39
GGGUCGAUUUAAGAUAAUCGCGUGGAUAUGGCACGCAAGUUUCUACCGGGCACCGUAAAUGUCCGACUGGAGCCGUUCGGGCGGCUAUAAACAGACCUCAGGCCCGAAGCGUGGCGGCACCUGCCGCCGGUGGUAAAAAAGAUCGGAAGAGCACACGUCU [U7A G9U U11A C12A C13G]	1.16
GGGUCGAUUGCGUAUAAUCGCGUGGAUAUGGCACGCAAGUUUCUACCGGGCACCGUAAAUGUCCGACUGGAGCCGUUCGGGCGGCUAUAAACAGACCUCAGGCCCGAAGCGUGGCGGCACCUGCCGCCGGUGGUAAAAAAGAUCGGAAGAGCACACGUCU [U7A G9U U10G U11C C12G C13U]	1.31
GGGUCGAUUGCGGAUAAUCGCGUGGAUAUGGCACGCAAGUUUCUACCGGGCACCGUAAAUGUCCGACUGGAGCCGUUCGGGCGGCUAUAAACAGACCUCAGGCCCGAAGCGUGGCGGCACCUGCCGCCGGUGGUAAAAAAGAUCGGAAGAGCACACGUCU [U7A G9U U10G U11C C12G C13G]	1.17
GGGUCGAUUGCGAAUAAUCGCGUGGAUAUGGCACGCAAGUUUCUACCGGGCACCGUAAAUGUCCGACUGGAGCCGUUCGGGCGGCUAUAAACAGACCUCAGGCCCGAAGCGUGGCGGCACCUGCCGCCGGUGGUAAAAAAGAUCGGAAGAGCACACGUCU [U7A G9U U10G U11C C12G C13A]	1.15
GGGUCGAUUGCCUAUAAUCGCGUGGAUAUGGCACGCAAGUUUCUACCGGGCACCGUAAAUGUCCGACUGGAGCCGUUCGGGCGGCUAUAAACAGACCUCAGGCCCGAAGCGUGGCGGCACCUGCCGCCGGUGGUAAAAAAGAUCGGAAGAGCACACGUCU [U7A G9U U10G U11C C13U]	1.05
GGGUCGAUUGCCAAUAAUCGCGUGGAUAUGGCACGCAAGUUUCUACCGGGCACCGUAAAUGUCCGACUGGAGCCGUUCGGGCGGCUAUAAACAGACCUCAGGCCCGAAGCGUGGCGGCACCUGCCGCCGGUGGUAAAAAAGAUCGGAAGAGCACACGUCU [U7A G9U U10G U11C C13A]	1.1
GGGUCGAUUGCCGAUAAUCGCGUGGAUAUGGCACGCAAGUUUCUACCGGGCACCGUAAAUGUCCGACUGGAGCCGUUCGGGCGGCUAUAAACAGACCUCAGGCCCGAAGCGUGGCGGCACCUGCCGCCGGUGGUAAAAAAGAUCGGAAGAGCACACGUCU [U7A G9U U10G U11C C13G]	1.08
GGGUCGAUUGGGGAUAAUCGCGUGGAUAUGGCACGCAAGUUUCUACCGGGCACCGUAAAUGUCCGACUGGAGCCGUUCGGGCGGCUAUAAACAGACCUCAGGCCCGAAGCGUGGCGGCACCUGCCGCCGGUGGUAAAAAAGAUCGGAAGAGCACACGUCU [U7A G9U U10G U11G C12G C13G]	1.4
GGGUCGAUUGGGAAUAAUCGCGUGGAUAUGGCACGCAAGUUUCUACCGGGCACCGUAAAUGUCCGACUGGAGCCGUUCGGGCGGCUAUAAACAGACCUCAGGCCCGAAGCGUGGCGGCACCUGCCGCCGGUGGUAAAAAAGAUCGGAAGAGCACACGUCU [U7A G9U U10G U11G C12G C13A]	1.23
GGGUCGAUUGGGUAUAAUCGCGUGGAUAUGGCACGCAAGUUUCUACCGGGCACCGUAAAUGUCCGACUGGAGCCGUUCGGGCGGCUAUAAACAGACCUCAGGCCCGAAGCGUGGCGGCACCUGCCGCCGGUGGUAAAAAAGAUCGGAAGAGCACACGUCU [U7A G9U U10G U11G C12G C13U]	1.45
GGGUCGAUUGCUGAUAAUCGCGUGGAUAUGGCACGCAAGUUUCUACCGGGCACCGUAAAUGUCCGACUGGAGCCGUUCGGGCGGCUAUAAACAGACCUCAGGCCCGAAGCGUGGCGGCACCUGCCGCCGGUGGUAAAAAAGAUCGGAAGAGCACACGUCU [U7A G9U U10G U11C C12U C13G]	1.19
GGGUCGAUUGCUAAUAAUCGCGUGGAUAUGGCACGCAAGUUUCUACCGGGCACCGUAAAUGUCCGACUGGAGCCGUUCGGGCGGCUAUAAACAGACCUCAGGCCCGAAGCGUGGCGGCACCUGCCGCCGGUGGUAAAAAAGAUCGGAAGAGCACACGUCU [U7A G9U U10G U11C C12U C13A]	1.29
GGGUCGAUUGCUUAUAAUCGCGUGGAUAUGGCACGCAAGUUUCUACCGGGCACCGUAAAUGUCCGACUGGAGCCGUUCGGGCGGCUAUAAACAGACCUCAGGCCCGAAGCGUGGCGGCACCUGCCGCCGGUGGUAAAAAAGAUCGGAAGAGCACACGUCU [U7A G9U U10G U11C C12U C13U]	1.22

Variant	aptazyme ON/OFF ratio
GGGUCGAUUUACCAUAAUCGCGUGGAUAUGGCACGCAAGUUUCUACCGGGCACCGUAAAUGUCCGACUGGAGCCGUUCGGGCGGCUAUAAACAGACCUCAGGCCCGAAGCGUGGCGGCACCUGCCGCCGGUGGUAAAAAAGAUCGGAAGAGCACACGUCU [U7A G9U U11A]	1.27
GGGUCGAUUGGGCAUAAUCGCGUGGAUAUGGCACGCAAGUUUCUACCGGGCACCGUAAAUGUCCGACUGGAGCCGUUCGGGCGGCUAUAAACAGACCUCAGGCCCGAAGCGUGGCGGCACCUGCCGCCGGUGGUAAAAAAGAUCGGAAGAGCACACGUCU [U7A G9U U10G U11G C12G]	1.43
GGGUCGAUUGGUCAUAAUCGCGUGGAUAUGGCACGCAAGUUUCUACCGGGCACCGUAAAUGUCCGACUGGAGCCGUUCGGGCGGCUAUAAACAGACCUCAGGCCCGAAGCGUGGCGGCACCUGCCGCCGGUGGUAAAAAAGAUCGGAAGAGCACACGUCU [U7A G9U U10G U11G C12U]	1.16
GGGUCGAUUGGACAUAAUCGCGUGGAUAUGGCACGCAAGUUUCUACCGGGCACCGUAAAUGUCCGACUGGAGCCGUUCGGGCGGCUAUAAACAGACCUCAGGCCCGAAGCGUGGCGGCACCUGCCGCCGGUGGUAAAAAAGAUCGGAAGAGCACACGUCU [U7A G9U U10G U11G C12A]	1.13
GGGUCGAUUGCGCAUAAUCGCGUGGAUAUGGCACGCAAGUUUCUACCGGGCACCGUAAAUGUCCGACUGGAGCCGUUCGGGCGGCUAUAAACAGACCUCAGGCCCGAAGCGUGGCGGCACCUGCCGCCGGUGGUAAAAAAGAUCGGAAGAGCACACGUCU [U7A G9U U10G U11C C12G]	1.21
GGGUCGAUUGCUCAUAAUCGCGUGGAUAUGGCACGCAAGUUUCUACCGGGCACCGUAAAUGUCCGACUGGAGCCGUUCGGGCGGCUAUAAACAGACCUCAGGCCCGAAGCGUGGCGGCACCUGCCGCCGGUGGUAAAAAAGAUCGGAAGAGCACACGUCU [U7A G9U U10G U11C C12U]	1.06
GGGUCGAUUGCACAUAAUCGCGUGGAUAUGGCACGCAAGUUUCUACCGGGCACCGUAAAUGUCCGACUGGAGCCGUUCGGGCGGCUAUAAACAGACCUCAGGCCCGAAGCGUGGCGGCACCUGCCGCCGGUGGUAAAAAAGAUCGGAAGAGCACACGUCU [U7A G9U U10G U11C C12A]	1.21
GGGUCGAUUGGAUAUAAUCGCGUGGAUAUGGCACGCAAGUUUCUACCGGGCACCGUAAAUGUCCGACUGGAGCCGUUCGGGCGGCUAUAAACAGACCUCAGGCCCGAAGCGUGGCGGCACCUGCCGCCGGUGGUAAAAAAGAUCGGAAGAGCACACGUCU [U7A G9U U10G U11G C12A C13U]	1.21
GGGUCGAUUGGAAAUAAUCGCGUGGAUAUGGCACGCAAGUUUCUACCGGGCACCGUAAAUGUCCGACUGGAGCCGUUCGGGCGGCUAUAAACAGACCUCAGGCCCGAAGCGUGGCGGCACCUGCCGCCGGUGGUAAAAAAGAUCGGAAGAGCACACGUCU [U7A G9U U10G U11G C12A C13A]	1.11
GGGUCGAUUGGAGAUAAUCGCGUGGAUAUGGCACGCAAGUUUCUACCGGGCACCGUAAAUGUCCGACUGGAGCCGUUCGGGCGGCUAUAAACAGACCUCAGGCCCGAAGCGUGGCGGCACCUGCCGCCGGUGGUAAAAAAGAUCGGAAGAGCACACGUCU [U7A G9U U10G U11G C12A C13G]	1.12
GGGUCGAUUGGUGAUAAUCGCGUGGAUAUGGCACGCAAGUUUCUACCGGGCACCGUAAAUGUCCGACUGGAGCCGUUCGGGCGGCUAUAAACAGACCUCAGGCCCGAAGCGUGGCGGCACCUGCCGCCGGUGGUAAAAAAGAUCGGAAGAGCACACGUCU [U7A G9U U10G U11G C12U C13G]	1.15
GGGUCGAUUGGUAAUAAUCGCGUGGAUAUGGCACGCAAGUUUCUACCGGGCACCGUAAAUGUCCGACUGGAGCCGUUCGGGCGGCUAUAAACAGACCUCAGGCCCGAAGCGUGGCGGCACCUGCCGCCGGUGGUAAAAAAGAUCGGAAGAGCACACGUCU [U7A G9U U10G U11G C12U C13A]	1.26
GGGUCGAUUGGUUAUAAUCGCGUGGAUAUGGCACGCAAGUUUCUACCGGGCACCGUAAAUGUCCGACUGGAGCCGUUCGGGCGGCUAUAAACAGACCUCAGGCCCGAAGCGUGGCGGCACCUGCCGCCGGUGGUAAAAAAGAUCGGAAGAGCACACGUCU [U7A G9U U10G U11G C12U C13U]	1.51
GGGUCGAUUGGCUAUAAUCGCGUGGAUAUGGCACGCAAGUUUCUACCGGGCACCGUAAAUGUCCGACUGGAGCCGUUCGGGCGGCUAUAAACAGACCUCAGGCCCGAAGCGUGGCGGCACCUGCCGCCGGUGGUAAAAAAGAUCGGAAGAGCACACGUCU [U7A G9U U10G U11G C13U]	1.11
GGGUCGAUUGGCAAUAAUCGCGUGGAUAUGGCACGCAAGUUUCUACCGGGCACCGUAAAUGUCCGACUGGAGCCGUUCGGGCGGCUAUAAACAGACCUCAGGCCCGAAGCGUGGCGGCACCUGCCGCCGGUGGUAAAAAAGAUCGGAAGAGCACACGUCU [U7A G9U U10G U11G C13A]	1.22
GGGUCGAUUGGCGAUAAUCGCGUGGAUAUGGCACGCAAGUUUCUACCGGGCACCGUAAAUGUCCGACUGGAGCCGUUCGGGCGGCUAUAAACAGACCUCAGGCCCGAAGCGUGGCGGCACCUGCCGCCGGUGGUAAAAAAGAUCGGAAGAGCACACGUCU [U7A G9U U10G U11G C13G]	1.17
GGGUCGAUUGGCCAUAAUCGCGUGGAUAUGGCACGCAAGUUUCUACCGGGCACCGUAAAUGUCCGACUGGAGCCGUUCGGGCGGCUAUAAACAGACCUCAGGCCCGAAGCGUGGCGGCACCUGCCGCCGGUGGUAAAAAAGAUCGGAAGAGCACACGUCU [U7A G9U U10G U11G]	1.1
GGGUCGAUUGCCCAUAAUCGCGUGGAUAUGGCACGCAAGUUUCUACCGGGCACCGUAAAUGUCCGACUGGAGCCGUUCGGGCGGCUAUAAACAGACCUCAGGCCCGAAGCGUGGCGGCACCUGCCGCCGGUGGUAAAAAAGAUCGGAAGAGCACACGUCU [U7A G9U U10G U11C]	1.06
